± gives the uncertainty stated by the source.

This data set is described as follows: amyloid nucleation score (Sup35N fusion, yeast selection) (log enrichment); library NNK3; higher = more nucleation; inactive = no reads after selection. An outline of the steps:
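Peptides of 20 random codons fused to Sup35N were expressed in psi-negative yeast, induced 24 hours with 100 μM copper sulfate, then grown 7 days at 30°C on medium lacking adenine and uracil. Input and output plasmid inserts were Illumina-sequenced. Nucleation score is the DiMSum log enrichment of output over input reads, centred on the mode score of non-aggregating sequences, excluding sequences with under 100 input reads. Random libraries had three technical output replicates.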
Consider FTLLIYCYYLYYRCFCYVVR, for which the amyloid nucleation score entry is “inactive”.
Take FTLLVMS: the amyloid nucleation score result was “inactive”.
The value for FTLNVIF was 1.9 ± 0.069; that for FTLWYVFRCVRCNKVCSGTG was 0.087 ± 0.26; that for FTNLMLTTMCSLTLLTRGFP was “inactive”.
With FTVSFRYSLCCRDGDGESEC, the amyloid nucleation score was 1.97 ± 0.087.
Take FTYAC: the amyloid nucleation score entry is “inactive”.
Regarding FTYCRASRSITMQYVCVICT, the amyloid nucleation score result is “inactive”.
The value for FTYTEMRLGIKFSTWRQ was 1.03 ± 0.14; that for FVCRNLTFPMGHQSIMSMWD was -0.117 ± 0.75.
On to FVDLHCSYRCIYGCCHFRIR, for which the amyloid nucleation score result is “inactive”.
On to FVESIAVLKLFNTVKWITFF, for which the amyloid nucleation score entry is “inactive”.
In the case of FVEVRVD, the amyloid nucleation score entry is “inactive”.
In the case of FVFIFWTLFGRSRVDVASNM, the amyloid nucleation score result was “inactive”.
Substance FVGSLLGKSKFLGLHCCKEV came in with an amyloid nucleation score of -0.08 ± 0.66.
As to FVHDFTFEGKSMVVRLNCSA, the amyloid nucleation score entry is “inactive”.
FVIGRI: the amyloid nucleation score entry was “inactive”.
As for FVKCFNGAFWNEGPFCYLCG, the amyloid nucleation score is 0.331 ± 0.32.
The value for FVKLIYWLGAWVSTLCG was “inactive”; that for FVLSMECSSRSSPSHTRDCA was -0.083 ± 0.33.
In the case of FVMGGGNGGHVGYMCFCEEV, the amyloid nucleation score entry was “inactive”.
FVMLVSEYGKELYIIGRPGA: the amyloid nucleation score entry is “inactive”.
Regarding FVMSFAN, the amyloid nucleation score result is “inactive”.
The value for FVNLAGLFGSRGTNLLCLGE was “inactive”; that for FVNQFLQKFMNLDKYIKLSH was “inactive”; that for FVQRWCYGGKCNGCVGSSGG was “inactive”.
Turning to FVSFGLGTMFDLRA, the amyloid nucleation score result is “inactive”.
The value for FVSLHTRLGDLHDVVCTLVF was “inactive”; that for FVSLSRNLNCTPRL was “inactive”.
With FVSSVASFVSHKLVMKLSAM, the amyloid nucleation score entry is “inactive”.
The substance FVTVVGGLRWNVTFSERWSV displayed an amyloid nucleation score of 0.081 ± 0.61.
The value for FVVCSAM was “inactive”.
For the substance FVYDMHKHQIALRQVSSCEG, the amyloid nucleation score result was “inactive”.
Take FWFLLWKRKDTLWAFR: the amyloid nucleation score result is “inactive”.
Take FWGSTWSLRVL: the amyloid nucleation score entry was “inactive”.
Regarding FWKLNFITIMCG, the amyloid nucleation score was -0.34 ± 1.
As to FWLLIIVF, the amyloid nucleation score result was “inactive”.
Regarding FWLYYNFQFLDDC, the amyloid nucleation score entry was “inactive”.
For the substance FWMIVYMNNSLI, the amyloid nucleation score entry was “inactive”.
The value for FYDHRIRSCGLVFIKECVTP was “inactive”; that for FYELEIV was “inactive”.
For FYLALIYNICFADRKLVGVC, the amyloid nucleation score result is “inactive”.
In the case of FYTMELISVQRI, the amyloid nucleation score entry is “inactive”.
Regarding GAFCSND, the amyloid nucleation score entry was “inactive”.
On to GAGRNFGTVCL, for which the amyloid nucleation score result is “inactive”.
The substance GASKHT yielded an amyloid nucleation score of 0.319 ± 0.33.
For GAYSGLCSILGSFLGLSAVK, the amyloid nucleation score entry was “inactive”.
The value for GCFNSCILYVLRLSIASVVS was “inactive”.
Turning to GCIDEDCGVLIIKFYNIRRY, the amyloid nucleation score was found to be 0.118 ± 0.59.
Take GCIVFCCRTLVNFDVVVYWF: the amyloid nucleation score result is “inactive”.
The value for GCNACVTSTCIRVVCGNLKC was 0.715 ± 0.3.
GCNLTYNVIGFGLYMKFRDE yielded an amyloid nucleation score of 1.85 ± 0.069.
On to GCSGVVVGCWRDPRICWLWW, for which the amyloid nucleation score entry was “inactive”.
The value for GCSLTWAVAEALTILVNAYT was “inactive”; that for GCVCQLR was “inactive”.
Take GCWNVMRRCVLLILPESYLV: the amyloid nucleation score result was “inactive”.
The value for GDCCHMADKTGGGTNRQIYH was “inactive”; that for GDHYGVEYSHPL was “inactive”.
As for GDMVCFVLMKALV, the amyloid nucleation score entry is “inactive”.
On to GDPNPHYL, for which the amyloid nucleation score result was “inactive”.
For GDRLFLKASG, the amyloid nucleation score result was “inactive”.
On to GDRVSEVTDCVFQAISIRCA, for which the amyloid nucleation score result is “inactive”.
The value for GDYDTMAEVKPFLDEKC was “inactive”.
GEFYCVVLRQYVWAQDDAG: the amyloid nucleation score result is “inactive”.
In the case of GEISWDC, the amyloid nucleation score is 0.283 ± 0.3.
For GELKFLVLNRFE, the amyloid nucleation score entry is “inactive”.
With GENWDCTCVADQCRNWTCYL, the amyloid nucleation score stood at 0.282 ± 0.81.
Substance GERFAVTSVSDHVTDKKTLS displayed an amyloid nucleation score of 1.77 ± 0.093.
On to GESYDCLLLHSRVWLSVVMG, for which the amyloid nucleation score entry was “inactive”.
In the case of GEWLCVFFSWPSGSPIVPWE, the amyloid nucleation score result is “inactive”.
The substance GEYMRLYVSVTGYTVYYSVR gave an amyloid nucleation score of 0.882 ± 0.2.
Consider GFAGMLYDLLPFGNWSLPSH, for which the amyloid nucleation score is -0.127 ± 0.75.
Take GFDLEVNTGNVVGFEDSAGQ: the amyloid nucleation score entry was “inactive”.
Regarding GFEAPWA, the amyloid nucleation score entry was “inactive”.
GFEPRRYP showed an amyloid nucleation score of -0.646 ± 1.3.
Take GFEVNKACQLIEYPLFFTRL: the amyloid nucleation score entry is “inactive”.
The value for GFGHGLKFRPRDRWGSIYPY was “inactive”; that for GFIDVPG was “inactive”.
Regarding GFIHWRGAIWVSL, the amyloid nucleation score is -0.65 ± 1.9.
For the substance GFKVVSSLDFSCG, the amyloid nucleation score turned out to be 0.55 ± 0.31.
In turn, GFKVVYKIWLPASRSACDPW had an amyloid nucleation score of 1.31 ± 0.13.
On to GFLCDGGN, for which the amyloid nucleation score was 0.149 ± 0.51.
As to GFLPA, the amyloid nucleation score entry was “inactive”.
As for GFLVNSISFSKSCYEHTIVW, the amyloid nucleation score entry was “inactive”.
In the case of GFRYLRTDNYMPCRGESVGW, the amyloid nucleation score result was “inactive”.
GFSDLCQHYFQYLVK: the amyloid nucleation score entry was “inactive”.
Turning to GFSLFYYL, the amyloid nucleation score entry is “inactive”.
Consider GFTVG, for which the amyloid nucleation score entry was “inactive”.
The value for GFWINVMISKTLRYGSKAWC was “inactive”; that for GFYTVFCIMQSAEGLDGTVW was 1.26 ± 0.12; that for GFYVRRGCLWGGYNHVFAIF was “inactive”.
With GGCLGICTAANLRSGNRITR, the amyloid nucleation score entry was “inactive”.
The value for GGLLWAKCVMLILYYVPMGL was “inactive”; that for GHKVVL was “inactive”; that for GHLESVFRSVDTLVSYSS was 0.138 ± 0.55.
Take GHNRYIDLSIEIRAL: the amyloid nucleation score was -0.61 ± 1.1.
Consider GHVIMGLSGYGSLASLFKTG, for which the amyloid nucleation score result is “inactive”.
For GIAIDREKVVPIRGYLWSVT, the amyloid nucleation score result was “inactive”.
For the substance GICHAACCCANVMYCSWHVR, the amyloid nucleation score is 1 ± 0.16.
GICIGTDKTFYCLGMSFF: the amyloid nucleation score entry is “inactive”.
In the case of GICKGNMYRFSMSYDSNLIM, the amyloid nucleation score result is “inactive”.
Regarding GIFLSEWWLGSVSCVRTNVP, the amyloid nucleation score entry is “inactive”.
GILFYTHGRKDASD gave an amyloid nucleation score of -0.348 ± 0.5.
With GILIFTGYEDIFSCESDGSW, the amyloid nucleation score entry is “inactive”.
Take GISFSFRFLNENFHCVFRRA: the amyloid nucleation score entry was “inactive”.
As for GISTGISWQLCGHSGDWYWW, the amyloid nucleation score was -0.658 ± 1.9.
Turning to GIVNYRPAYP, the amyloid nucleation score entry is “inactive”.
Take GKDVSVGEVFKPLVSVRRVN: the amyloid nucleation score entry was “inactive”.
The value for GKEKCTMNSHATLRVDVEMT was “inactive”.
As for GKKNYLF, the amyloid nucleation score result was “inactive”.
Consider GKLLP, for which the amyloid nucleation score entry is “inactive”.
As for GKLTWIYIGIARPHEKMWLT, the amyloid nucleation score entry is “inactive”.
Turning to GKNKQLS, the amyloid nucleation score entry was “inactive”.
Take GKVSAFCMHGGYTCDLSVEL: the amyloid nucleation score entry is “inactive”.
As to GKWGWLIASWREFTS, the amyloid nucleation score result is “inactive”.
The substance GLALNWLCG displayed an amyloid nucleation score of 0.026 ± 0.43.
Regarding GLDLRTCGCYHSIP, the amyloid nucleation score entry is “inactive”.
The value for GLEGLLVLWFQCSFTVAALR was “inactive”.
GLFLRMLLRADPAKSWENRI yielded an amyloid nucleation score of 0.238 ± 0.27.
With GLGSFLRQRRACPSGGTQ, the amyloid nucleation score entry was “inactive”.
The value for GLHIRFQNYLRQGQ was 1.22 ± 0.17.
Take GLKCGFRPSSVINSYWSSQL: the amyloid nucleation score result is “inactive”.
The value for GLKKWLFD was “inactive”; that for GLKWWLISASSVNFICVRYT was 0.104 ± 0.23; that for GLLAFKVLISKASVDFYNVS was -0.134 ± 0.4.
In the case of GLLCFK, the amyloid nucleation score entry was “inactive”.
As to GLLNRIIVLYTLLNSDIRES, the amyloid nucleation score result is “inactive”.
For GLLSHLDHLWVCGGWGSRKR, the amyloid nucleation score result was “inactive”.
GLNGIDLKLSVAGFVVFLGR: the amyloid nucleation score was 1.48 ± 0.14.
On to GLPFLSTMELLLLLMSKTMR, for which the amyloid nucleation score entry is “inactive”.
The value for GLRGVDWVDREQLPGTVQGH was -0.589 ± 1.9; that for GLRKMRGLTQ was “inactive”; that for GLRTFIG was “inactive”.
GLSMLGGLNDSRTCSLVSNV: the amyloid nucleation score result was “inactive”.

For the origin of these results see the supplement of paper PMC12042874.
